Laboratory results published in the supplement of paper PMC10567573.

B1: C10orf62 (parent)
chain: GHSHHSHHGHPSHQSHSLPNRRH
B2: FBXO3 (parent)
chain: AGGFQQRQGLKYCLPLTFCIHTGL

Variants of: B1
Assay: protein stability index of a GFP-peptide fusion (GPS, HEK-293T) (PSI 1-6); higher = more stable
Conditions: c terminus: native
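Note: lentivirally expressed fusions sorted by FACS into six bins by GFP to DsRed ratio, PSI derived from sequencing read proportions per bin multiplied by bin number.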

Row | Variant | protein stability index
1 | H5M | 2.23
2 | H5W | 2.3
3 | P11E | 2.1
4 | P11A | 3.2
5 | P11Q | 3.94
6 | P11L | 3.12
7 | P11R | 3.75
8 | P11S | 2.71
9 | P19F | 2.38
10 | H13T | 3.08
11 | H13M | 5.42
12 | S15K | 3.18
13 | R21Y | 2.17
14 | R21M | 2
15 | R21T | 1.81
16 | G1H | 2.43
17 | S12N | 3.1
18 | S12Y | 2.21
19 | S12E | 3
20 | H2W | 3
21 | H2N | 3.26
22 | H2D | 2.97
23 | H2K | 3.36
24 | H2F | 3.23
25 | H2V | 1.5
26 | S6Q | 3.1

Row | Variant | protein stability index
27 | S6P | 2.12
28 | S6Y | 3.47
29 | H16M | 2.32
30 | H16T | 2.08
31 | H16V | 2.2
32 | H4A | 2.45
33 | H4F | 3.61
34 | H4I | 2.58
35 | R22P | 3.56
36 | Q14A | 3.39
37 | Q14D | 3.4
38 | L18E | 3.19
39 | L18D | 1.85
40 | S3K | 2.75
41 | S3V | 3.19
42 | S3I | 2.2
43 | S3F | 2.38
44 | H23P | 2.31
45 | H23F | 2.77
46 | H23C | 2.68
47 | H8S | 2.96
48 | H8M | 2.06
49 | G9M | 3.76
50 | G9P | 1.91
51 | S17W | 2.37
52 | H10M | 2.98

Variants of: B2
Assay: as above
Conditions: c terminus: a fixed tail appended

Row | Variant | protein stability index
53 | Q8C | 3.53
54 | Q8G | 3.4
55 | Q8A | 2.82
56 | Q8H | 2.66
57 | Q8I | 2.51
58 | Q8D | 1.88
59 | Q8L | 2.56
60 | Q8T | 3.56
61 | Q8K | 3.23
62 | Q8W | 2.88
63 | Q8Y | 2.17
64 | Q8F | 2.59
65 | Q8M | 2.24
66 | Q8R | 2.99
67 | Q8V | 2.22
68 | C13M | 2.51
69 | C13G | 2.48
70 | C13Y | 2.22
71 | C13D | 2.67
72 | C13P | 3.01
73 | C13E | 3.1
74 | C13F | 2.94
75 | C13N | 2.93
76 | C13W | 3.43

Row | Variant | protein stability index
77 | C13Q | 3
78 | C13H | 2.57
79 | C13V | 3.35
80 | C13A | 2.85
81 | C13I | 2.94
82 | C13T | 3.22
83 | C13L | 1.69
84 | G3V | 2.54
85 | G3Q | 4.36
86 | G3P | 1.51
87 | G3F | 3.02
88 | G3R | 3.24
89 | G3C | 2.66
90 | G3L | 3.11
91 | G3K | 2.51
92 | G3S | 2.44
93 | G3D | 3.1
94 | G3M | 2.47
95 | G3E | 1.99
96 | G3A | 1.48
97 | G3Y | 3.02
98 | G3N | 3.27
99 | G3T | 3.31
100 | K11G | 3.61

Row | Variant | protein stability index
101 | K11C | 2.12
102 | K11L | 2.21
103 | K11M | 1.96
104 | K11E | 2.8
105 | K11H | 2.35
106 | K11I | 3.42
107 | K11W | 4.04
108 | K11S | 2.74
109 | K11D | 3.52
110 | K11A | 2.43
111 | K11T | 2.45
112 | K11N | 1.99
113 | K11V | 3.35
114 | K11Q | 2.75
115 | K11R | 2.03
116 | K11Y | 2.43
117 | K11F | 3.02
118 | Y12M | 2.59
119 | Y12E | 2.29
120 | Y12T | 2.2
121 | Y12I | 2.84
122 | Y12Q | 3.79
123 | Y12L | 3.06
124 | Y12C | 2.32

Row | Variant | protein stability index
125 | Y12R | 3.39
126 | Y12S | 3.56
127 | Y12D | 2.21
128 | Y12P | 1.68
129 | Y12N | 1.86
130 | Y12G | 3.3
131 | Y12K | 2.49
132 | Y12W | 2.43
133 | Y12A | 3.25
134 | Y12V | 2.36
135 | P15A | 2.77
136 | P15Q | 2.27
137 | P15R | 2.51
138 | P15W | 1.61
139 | P15C | 2.57
140 | P15M | 2.93
141 | P15L | 2.01
142 | P15K | 1.13
143 | P15I | 3.05
144 | P15S | 2.81
145 | P15G | 2.33
146 | P15F | 2.95
147 | F18G | 1.1
148 | F18D | 1.67

Row | Variant | protein stability index
149 | F18E | 2.36
150 | F18K | 1.89
151 | F18L | 3.1
152 | F18A | 2.38
153 | F18I | 2.93
154 | F18H | 1.77
155 | L14S | 2.67
156 | L14N | 2.34
157 | L14K | 2.73
158 | L14Q | 2.57
159 | L14A | 2.7
160 | L14H | 1.75
161 | L14R | 2.88
162 | L14I | 4.28
163 | L14M | 2.42
164 | L14G | 3.59
165 | L14E | 1.97
166 | L14Y | 2.16
167 | L14D | 1.78
168 | L14V | 4.27
169 | L14C | 3.66
170 | L14T | 1.84
171 | L14P | 1.56
172 | Q5Y | 3.66

Row | Variant | protein stability index
173 | Q5A | 3.05
174 | Q5C | 3.02
175 | Q5D | 2.34
176 | Q5K | 2.88
177 | Q5L | 2.32
178 | Q5W | 3.08
179 | Q5N | 2.77
180 | Q5H | 1.87
181 | Q5F | 1.98
182 | Q5V | 2.33
183 | Q5I | 2.17
184 | Q5T | 2
185 | Q5P | 1.71
186 | Q5S | 3.59
187 | Q5M | 2.17
188 | Q5G | 3.92
189 | Q5R | 2.27
190 | L16C | 1.66
191 | L16R | 2.91
192 | L16M | 4.03
193 | L16E | 2.03
194 | L16N | 1.51
195 | L16S | 2.17
196 | L16W | 2.89

Row | Variant | protein stability index
197 | L16A | 2.44
198 | L16F | 3.56
199 | L16I | 3.02
200 | L16H | 2.58
201 | L16K | 2.95
202 | L16P | 2.75
203 | L16D | 1.68
204 | L16Y | 2.33
205 | L16T | 2.53
206 | L16Q | 1.52
207 | T17K | 2.75
208 | T17G | 2.31
209 | T17Q | 2.4
210 | T17C | 2.73
211 | T17L | 2.11
212 | T17N | 1.66
213 | T17Y | 2.69
214 | T17D | 1.55
215 | T17F | 1.67
216 | T17E | 4.01
217 | T17I | 2.65
218 | T17W | 3.79
219 | T17H | 3.39
220 | T17M | 3.43

Row | Variant | protein stability index
221 | T17V | 3.17
222 | T17P | 2.59
223 | T17R | 2.87
224 | A1Q | 2.55
225 | A1L | 2.46
226 | A1D | 2.89
227 | A1W | 5.07
228 | A1F | 3.41
229 | A1H | 3.55
230 | A1N | 2.47
231 | A1G | 3.9
232 | A1Y | 3.08
233 | A1V | 2.89
234 | A1M | 3.13
235 | A1I | 2
236 | A1K | 1.87
237 | A1C | 2.76
238 | A1E | 2.57
239 | A1S | 2.65
240 | A1R | 2.39
241 | A1T | 3.47
242 | A1P | 2.91
243 | G9H | 2.94
244 | G9D | 2.68

Row | Variant | protein stability index
245 | G9L | 3.97
246 | G9M | 3.48
247 | G9S | 3.54
248 | G9F | 2.58
249 | G9Q | 2.5
250 | G9R | 1.48
251 | G9E | 1.87
252 | G9N | 2.28
253 | G9V | 2.39
254 | G9T | 3.85
255 | G9I | 2.28
256 | G9K | 2.74
257 | G9Y | 3.4
258 | G9C | 2.68
259 | F4T | 2.82
260 | F4C | 2.66
261 | F4D | 1.87
262 | F4H | 2.54
263 | F4I | 3.07
264 | F4S | 2.38
265 | F4Y | 2.42
266 | F4P | 2.09
267 | F4E | 3.03
268 | F4Q | 2.37

Row | Variant | protein stability index
269 | F4R | 2.36
270 | F4M | 2.69
271 | F4A | 3.49
272 | R7T | 2.6
273 | R7I | 2.12
274 | R7L | 3.44
275 | R7H | 2.74
276 | R7C | 2.54
277 | R7E | 2.83
278 | R7N | 2.95
279 | R7D | 2.64
280 | R7Y | 2.27
281 | R7V | 3.75
282 | R7P | 3.24
283 | R7G | 3.16
284 | R7S | 2.33
285 | R7F | 3.23
286 | L10V | 2.85
287 | L10F | 2.03
288 | L10T | 2.53
289 | L10P | 2.2
290 | L10C | 2.26
291 | L10A | 2.95
292 | L10W | 3.49

Row | Variant | protein stability index
293 | L10Y | 3.49
294 | L10H | 1.64
295 | L10Q | 3.23
296 | L10N | 2.56
297 | L10E | 2.19
298 | L10D | 2.84
299 | L10S | 3.66
300 | L10M | 2.56
301 | L10K | 3.64
302 | G2R | 2.59
303 | G2E | 2.36
304 | G2P | 2.79
305 | G2Y | 2.4
306 | G2L | 2.79
307 | G2F | 2.79
308 | G2K | 3.68
309 | G2C | 2.6
310 | G2S | 3.13
311 | G2V | 2.97
312 | G2I | 4.2
313 | G2N | 2.94
314 | G2D | 1.68
315 | G2H | 4.03
316 | G2T | 1.88

Row | Variant | protein stability index
317 | Q6D | 1.89
318 | Q6N | 3.27
319 | Q6G | 2.7
320 | Q6C | 2.8
321 | Q6K | 3.51
322 | Q6T | 2.67
323 | Q6V | 2.68
324 | Q6W | 3.85
325 | Q6L | 3.23
326 | Q6P | 3.26
327 | Q6A | 2.26
328 | Q6M | 2.1
329 | Q6Y | 2.09
330 | Q6S | 2.81
331 | Q6H | 3.73
332 | Q6I | 3.58
333 | Q6E | 3.6
334 | Q6R | 2.77
